B1: FLAG-tagged KIR2DL2, full-length, wild type, on 293T cells [human] / HLA-C*07:02-RL9 tetramer (phycoerythrin-conjugated) [modified: biotin (enzymatically, with biotin ligase)] [human | not stated] (parent complex)
chain 1: HEGVHRKPSLLAHPGRLVKSEETVILQCWSDVRFEHFLLHREGKFKDTLHLIGEHHDGVSKANFSIGPMMQDLAGTYRCYGSVTHSPYQLSAPSDPLDIVITGLYEKPSLSAQPGPTVLAGESVTLSCSSRSSYDMYHLSREGEAHECRFSAGPKVNGTFQADFPLGPATHGGTYRCFGSFRDSPYEWSNSSDPLLVSVIGNPSNSWPSPTEPSSKTGNPRHLHILIGTSVVIILFILLFFLLHRWCSNKKNAAVMDQESAGNRTANSEDSDEQDPQEVTYTQLNHCVFTQRKITRPSQRPKTPPTDIIVYAELPNAESRSKVVSCP
chain 2: not shown
chain 3: not shown
chain 4: RYRPGTVAL
B2: FLAG-tagged KIR2DL3, full-length, wild type, on 293T cells [human] / HLA-C*03:04-GL9 tetramer (phycoerythrin-conjugated) [modified: biotin (enzymatically, with biotin ligase)] [human] (parent complex)
chain 1: HEGVHRKPSLLAHPGPLVKSEETVILQCWSDVRFQHFLLHREGKFKDTLHLIGEHHDGVSKANFSIGPMMQDLAGTYRCYGSVTHSPYQLSAPSDPLDIVITGLYEKPSLSAQPGPTVLAGESVTLSCSSRSSYDMYHLSREGEAHERRFSAGPKVNGTFQADFPLGPATHGGTYRCFGSFRDSPYEWSNSSDPLLVSVTGNPSNSWPSPTEPSSETGNPRHLHVLIGTSVVIILFILLLFFLLHRWCCNKKNAVVMDQEPAGNRTVNREDSDEQDPQEVTYAQLNHCVFTQRKITRPSQRPKTPPTDIIVYTELPNAEP
chain 2: not shown
chain 3: not shown
chain 4: GAVDPLLAL
B3: FLAG-tagged KIR2DL3, full-length, wild type, on 293T cells [human] / HLA-C*07:02-RL9 tetramer (phycoerythrin-conjugated) [modified: biotin (enzymatically, with biotin ligase)] [human | not stated] (parent complex)
chain 1: B2 chain 1
chain 2: not shown
chain 3: not shown
chain 4: RYRPGTVAL
B4: FLAG-tagged KIR2DL2, full-length, wild type, on 293T cells [human] / HLA-C*03:04-GL9 tetramer (phycoerythrin-conjugated) [modified: biotin (enzymatically, with biotin ligase)] [human] (parent complex)
chain 1: B1 chain 1
chain 2: not shown
chain 3: not shown
chain 4: GAVDPLLAL

Variants of: B1
Assay: flow cytometry, HLA tetramer staining of transfected 293T cells; percentage tetramer+ normalised to percentage FLAG+; read off a plot

Variant	ratio to parent
chain 1 E106A	~1.2
chain 1 D135A	~1.2
chain 1 E21A	~1
chain 1 D183A	~0.67
chain 1 D72A	~1.3

The remaining lines, values ahead:

ratio to parent	Variant
~1.1	chain 1 F45A
~1.1	chain 1 K44A
~0.67	chain 1 L104A
~1.2	chain 1 S133A
~0.01	chain 1 Y105A
~1	chain 1 S132A
~0.92	chain 1 M70A

Variants of: B2
Assay: as above

Variant	ratio to parent
chain 1 D135A	~0.1
chain 1 E106A	~0.82
chain 1 E21A	~0.92
chain 1 D72A	~1
chain 1 D183A	~0.05

Results, then the variant that gave them:

ratio to parent	Variant
~0.6	chain 1 K44A
~1.1	chain 1 M70A
~0.57	chain 1 S133A
~0.02	chain 1 Y105A
~0.05	chain 1 L104A
~1.2	chain 1 S132A
~0.04	chain 1 F45A

Variants of: B3
Assay: as above

Variant	ratio to parent
chain 1 E106A	~0.85
chain 1 E21A	~0.97
chain 1 D135A	~0.57
chain 1 D183A	~0.33
chain 1 D72A	~1.1

Further lines, results first:

ratio to parent	Variant
~1.1	chain 1 S132A
~1.3	chain 1 M70A
~0.9	chain 1 K44A
~0.4	chain 1 L104A
~0.72	chain 1 F45A
~0.02	chain 1 Y105A
~1.2	chain 1 S133A

Variants of: B4
Assay: as above

Variant	ratio to parent
chain 1 E21A	~0.88
chain 1 D183A	~0.02
chain 1 D135A	~0.03
chain 1 D72A	~1.1

Next, values leading:

ratio to parent	Variant
~1	chain 1 M70A
~0.93	chain 1 E106A
~0.01	chain 1 Y105A
~0.95	chain 1 K44A
~1	chain 1 S132A
~0.02	chain 1 L104A
~0.03	chain 1 F45A
~0.17	chain 1 S133A

Reference: publication PMC8041999 (2021)
